Here are results for seven molecules from US20220356230A1 (published 2022).

In assay [1] the target is Human SARS Coronavirus Spike S1 Subunit Protein (His Tag) (Sino 40150-V08B1) (Human SARS Coronavirus, UniProt P59594 14-667). Description: Luminex bead binding, antigen on microspheres, antibody supernatant.
For assay [2], the target named is T1, MERS-CoV (SARS-CoV-2) Spike Protein (ECD, aa 1-1297, His Tag) (Sino 40069-[change]) (MERS-CoV, UniProt K9N5Q8 18-1297).
T1 sequence: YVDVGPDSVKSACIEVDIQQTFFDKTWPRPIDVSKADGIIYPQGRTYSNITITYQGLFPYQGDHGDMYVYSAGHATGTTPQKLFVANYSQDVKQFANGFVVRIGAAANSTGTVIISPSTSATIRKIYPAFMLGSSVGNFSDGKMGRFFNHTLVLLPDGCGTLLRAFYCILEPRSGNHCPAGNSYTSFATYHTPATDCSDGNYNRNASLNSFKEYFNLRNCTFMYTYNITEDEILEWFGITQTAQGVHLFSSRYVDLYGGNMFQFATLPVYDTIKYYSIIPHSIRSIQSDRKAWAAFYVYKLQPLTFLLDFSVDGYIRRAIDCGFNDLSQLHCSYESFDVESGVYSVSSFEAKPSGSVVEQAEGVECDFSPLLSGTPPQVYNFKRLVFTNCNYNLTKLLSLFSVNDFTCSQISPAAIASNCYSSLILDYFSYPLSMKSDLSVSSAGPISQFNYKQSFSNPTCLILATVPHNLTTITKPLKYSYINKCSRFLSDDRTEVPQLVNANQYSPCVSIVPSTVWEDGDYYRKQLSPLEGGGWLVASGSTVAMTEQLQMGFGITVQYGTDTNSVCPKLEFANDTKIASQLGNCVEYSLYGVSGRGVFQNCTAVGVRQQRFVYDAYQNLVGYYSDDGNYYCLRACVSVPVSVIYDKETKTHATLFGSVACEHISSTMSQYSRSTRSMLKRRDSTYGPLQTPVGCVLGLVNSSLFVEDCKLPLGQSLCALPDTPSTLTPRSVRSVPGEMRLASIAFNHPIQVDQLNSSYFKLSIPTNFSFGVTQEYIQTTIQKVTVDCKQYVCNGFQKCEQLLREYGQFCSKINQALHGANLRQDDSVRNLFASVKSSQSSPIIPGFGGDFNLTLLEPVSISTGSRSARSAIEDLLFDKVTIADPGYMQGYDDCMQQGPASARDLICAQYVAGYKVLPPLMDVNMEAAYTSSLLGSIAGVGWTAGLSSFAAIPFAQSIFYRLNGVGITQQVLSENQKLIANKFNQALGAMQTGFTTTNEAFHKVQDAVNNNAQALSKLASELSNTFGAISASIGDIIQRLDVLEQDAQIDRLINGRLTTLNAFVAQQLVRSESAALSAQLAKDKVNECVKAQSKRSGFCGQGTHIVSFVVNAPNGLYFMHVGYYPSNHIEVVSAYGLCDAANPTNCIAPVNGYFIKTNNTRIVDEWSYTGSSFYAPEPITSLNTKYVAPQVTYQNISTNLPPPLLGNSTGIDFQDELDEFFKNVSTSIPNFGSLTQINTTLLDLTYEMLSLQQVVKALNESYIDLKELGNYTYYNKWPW
Described as above.

In assay [3] the target is T2, MERS-CoV (SARS-CoV-2) Spike Protein S2 (aa 726-1296, His Tag) (Sino 40070-[change]) (MERS-CoV, UniProt K9N5Q8 726-1296).
T2 sequence: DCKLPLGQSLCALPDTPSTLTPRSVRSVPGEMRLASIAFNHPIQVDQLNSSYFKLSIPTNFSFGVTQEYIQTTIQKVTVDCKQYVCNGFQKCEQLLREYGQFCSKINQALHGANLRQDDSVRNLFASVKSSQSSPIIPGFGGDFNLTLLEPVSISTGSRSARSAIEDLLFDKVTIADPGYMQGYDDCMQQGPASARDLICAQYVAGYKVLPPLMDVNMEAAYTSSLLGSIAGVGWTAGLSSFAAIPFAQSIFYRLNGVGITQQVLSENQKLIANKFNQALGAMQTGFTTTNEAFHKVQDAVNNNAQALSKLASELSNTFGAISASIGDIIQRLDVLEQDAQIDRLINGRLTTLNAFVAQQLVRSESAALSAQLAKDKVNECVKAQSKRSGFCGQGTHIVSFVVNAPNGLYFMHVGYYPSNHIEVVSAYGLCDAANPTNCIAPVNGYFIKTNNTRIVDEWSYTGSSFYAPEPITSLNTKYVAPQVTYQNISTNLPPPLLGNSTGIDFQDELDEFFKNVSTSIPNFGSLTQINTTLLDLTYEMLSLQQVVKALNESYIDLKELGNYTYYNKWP
Put plainly: Luminex bead assay, supernatant on antigen microspheres.

Assay [4] has as its target T3, MERS-CoV (SARS-CoV-2) Spike Protein (ECD, aa 1-1297, His Tag) (Sino 40069-[change]) (MERS-CoV, UniProt K9N5Q8 18-1297).
T3 sequence: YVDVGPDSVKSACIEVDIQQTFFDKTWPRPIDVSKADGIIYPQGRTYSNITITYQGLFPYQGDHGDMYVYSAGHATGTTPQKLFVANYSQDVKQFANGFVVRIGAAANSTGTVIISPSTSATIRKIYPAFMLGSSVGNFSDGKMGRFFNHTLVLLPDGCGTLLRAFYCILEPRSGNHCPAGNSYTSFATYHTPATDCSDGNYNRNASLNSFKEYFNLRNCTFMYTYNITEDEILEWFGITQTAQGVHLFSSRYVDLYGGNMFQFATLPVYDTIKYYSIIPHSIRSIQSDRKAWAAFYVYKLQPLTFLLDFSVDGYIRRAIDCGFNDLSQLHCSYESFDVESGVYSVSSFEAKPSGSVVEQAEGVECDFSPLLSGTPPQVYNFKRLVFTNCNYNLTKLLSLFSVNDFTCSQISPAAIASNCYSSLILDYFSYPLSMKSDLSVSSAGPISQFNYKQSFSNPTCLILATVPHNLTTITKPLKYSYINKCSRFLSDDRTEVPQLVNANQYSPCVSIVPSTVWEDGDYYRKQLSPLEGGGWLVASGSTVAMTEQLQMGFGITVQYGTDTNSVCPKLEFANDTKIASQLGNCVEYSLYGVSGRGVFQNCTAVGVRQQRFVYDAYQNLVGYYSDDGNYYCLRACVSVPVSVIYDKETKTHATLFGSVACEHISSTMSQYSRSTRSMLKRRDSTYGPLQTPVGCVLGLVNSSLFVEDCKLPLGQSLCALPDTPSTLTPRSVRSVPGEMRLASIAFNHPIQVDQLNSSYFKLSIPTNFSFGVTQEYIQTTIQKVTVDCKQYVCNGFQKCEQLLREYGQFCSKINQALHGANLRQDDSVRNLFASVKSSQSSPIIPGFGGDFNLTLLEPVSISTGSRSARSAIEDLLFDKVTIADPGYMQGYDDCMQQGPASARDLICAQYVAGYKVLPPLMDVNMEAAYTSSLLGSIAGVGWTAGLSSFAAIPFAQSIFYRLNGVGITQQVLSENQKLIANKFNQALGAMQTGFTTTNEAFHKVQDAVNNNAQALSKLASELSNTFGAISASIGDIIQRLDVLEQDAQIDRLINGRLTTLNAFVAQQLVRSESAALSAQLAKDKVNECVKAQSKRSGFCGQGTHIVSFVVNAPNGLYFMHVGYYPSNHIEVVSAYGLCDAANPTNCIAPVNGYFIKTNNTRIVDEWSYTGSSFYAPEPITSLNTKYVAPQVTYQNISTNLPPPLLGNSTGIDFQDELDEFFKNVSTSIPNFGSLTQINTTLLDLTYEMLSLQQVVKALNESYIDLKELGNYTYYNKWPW
Described as above.

Assay [5] deals with T4, MERS-CoV (SARS-CoV-2) Spike Protein S2 (aa 726-1296, His Tag) (Sino 40070-[change]) (MERS-CoV, UniProt K9N5Q8 726-1296).
T4 sequence: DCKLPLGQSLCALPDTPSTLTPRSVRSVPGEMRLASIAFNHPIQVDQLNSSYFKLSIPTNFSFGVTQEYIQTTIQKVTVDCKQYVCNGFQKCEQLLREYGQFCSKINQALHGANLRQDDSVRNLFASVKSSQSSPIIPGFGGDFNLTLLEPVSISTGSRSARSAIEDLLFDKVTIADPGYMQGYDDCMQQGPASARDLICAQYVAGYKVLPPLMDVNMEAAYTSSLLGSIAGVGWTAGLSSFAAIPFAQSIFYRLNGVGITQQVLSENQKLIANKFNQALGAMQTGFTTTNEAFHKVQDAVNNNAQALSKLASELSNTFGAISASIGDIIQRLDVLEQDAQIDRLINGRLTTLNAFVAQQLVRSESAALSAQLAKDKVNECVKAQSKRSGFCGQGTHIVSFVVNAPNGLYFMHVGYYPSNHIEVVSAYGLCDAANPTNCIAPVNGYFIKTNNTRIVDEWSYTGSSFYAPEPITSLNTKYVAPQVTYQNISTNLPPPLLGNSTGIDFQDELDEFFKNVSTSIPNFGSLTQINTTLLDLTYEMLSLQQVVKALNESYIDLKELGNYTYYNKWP
Put plainly: Luminex bead binding, antigen on microspheres, antibody supernatant.

B1: mAb10964 (antibody, V domains shown)
VH: QVQLQESGPGLVKPSETLSLTCTVSGGSINNYYWIWIRQPPGKGLEWIGYIYHSGSTNYNPSLKSRVTISVDTSKNQFSLKVSSVTAADTAVYYCANMVRGVYEDDYWGQGTLVTVSS
VL: DIQMTQSPSSLSASVGDRVTITCRASQSISNYLNWYQQKPGKAPKLLIFAASSLRSGVPSRFSGSGSGTDFTLTISSLHPEDFATYYCQQNYNTPLTFGPGTKVDIKR
For the molecule B1, the MFI in assay [1] came out at 5190 MFI; in assay [2], 15 MFI.

B2: mAb10914 (antibody, V domains shown)
VH: EVQLVESGGGLVQPGGSLRLSCAASGLIVSRNYMIWVRQAPGKGLEWVSVIYSGGSTFYADSVKGRFTISRHNSKNTLYLQMNSLRAEDTAVYYCARDLGTGGMDVWGQGTTVTVSS
VL: DIQLTQSPSFLSASVGDRVTITCWASQGISSYLAWYQQKPGKAPKLLIYAASTLQSGVPSRFSGSGSGTEFTLTISSLQPEDFATYYCQQLNSYPLTFGGGTKVEIKR
For the molecule B2, the “Binding signal (MFI)” value in assay [3] was 28 MFI; in assay [4], 19 MFI.

B3: mAb10966 (antibody, V domains shown)
VH: EVQLVESGGGLVQPGGSLRLSCAASGLTVSSNYMSWVRQAPGKGLEWVSVIYSGGSTFYADSVKGRFTISRDNSKNTLYLQMNSLRPEDTAVYYCAREGRIAATGYGMDVWGQGTTVTVSS
VL: not shown
Regarding B3, the MFI in assay [1] amounted to 20 MFI; in assay [2], 16 MFI; in assay [5], 16 MFI.

B4: mAb10955 (antibody, V domains shown)
VH: EVQLVESGGGLVQPGGSLRVSCAASGFTVSRNYMSWVRQAPGKGLEWVSVIYSGGSTFYADSVKGRFTISRDNSKNTLYLQMNSLRAEDTAIYYCARYIPRFDPWGQGTLVTVSS
VL: DIQMTQSPSSLSASVGDRVTITCQASQDISNYLNWFQQKPGRAPKLLIYDASNLETGVPSRFSGSGSGTDFTFTISSLQPEDIATYYCQQYDNLPITFGQGTRLEIKR
With B4, the MFI in assay [1] worked out at 14 MFI; in assay [2] it was 15 MFI; in assay [5], 18 MFI.

B5: mAb10933 (antibody, V domains shown)
VH: QVQLVESGGGLVKPGGSLRLSCAASGFTFSDYYMSWIRQAPGKGLEWVSYITYSGSTIYYADSVKGRFTISRDNAKSSLYLQMNSLRAEDTAVYYCARDRGTTMVPFDYWGQGTLVTVSS
VL: DIQMTQSPSSLSASVGDRVTITCQASQDITNYLNWYQQKPGKAPKLLIYAASNLETGVPSRFSGSGSGTDFTFTISGLQPEDIATYYCQQYDNLPLTFGGGTKVEIKR
In the case of B5, in assay [3], the “Binding signal (MFI)” value is 19 MFI.

B6: mAb10934 (antibody, V domains shown)
VH: not shown
VL: DIQMTQSPSSLSASVGDRVTITCQASQDIWNYINWYQQKPGKAPKLLIYDASNLKTGVPSRFSGSGSGTDFTFTISSLQPEDIATYYCQQHDDLPPTFGQGTKVEIKR
In the case of B6, the “Binding signal (MFI)” value in assay [4] amounted to 15 MFI.

B7: mAb10971 (antibody, V domains shown)
VH: EVQLVESGGGLIQPGGSLRLSCAASGVTVSSNYMSWVRQAPGKGLEWVSVIYSGGSTFYSDSVKGRFSISRDNSKNTLYLQMNSLRAEDTAVYYCARDLYYYGMDVWGQGTTVTVSS
VL: DIQLTQSPSFLSASVGDRVTITCRASQGISTYLAWYQQKPGKAPKLLIYAASTLQSGVPSRFSGSGSGTEFTLTISSLQPEDFATYYCQQLDSYPGLTFGGGTKVEIKR
Turning to B7, the results for the MFI in assay [1], in assay [2] and in assay [5] were 20 MFI, 15 MFI and 13 MFI, respectively.
